The record followed here is publication PMC2241890.

Usually Kd stands for a measure of binding affinity in units of concentration.

Residue numbers refer to the chain shown, from its start. Like-named read-outs stand apart in the source and are kept apart here.

Experiment in all cases: EMSA
On the technique in general: A gel shift assay detects complexes by their altered migration in electrophoresis.

Data set [1] deals with T1, HU alpha-beta heterodimer (Escherichia coli, UniProt P0ACF0;P0ACF4 1-90;1-90).
T1 sequence (P0ACF0 whole entry, chain 1 of 2): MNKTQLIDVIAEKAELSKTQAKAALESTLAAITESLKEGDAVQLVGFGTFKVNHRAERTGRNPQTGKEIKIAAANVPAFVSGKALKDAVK
T1 sequence (P0ACF4 whole entry, chain 2 of 2): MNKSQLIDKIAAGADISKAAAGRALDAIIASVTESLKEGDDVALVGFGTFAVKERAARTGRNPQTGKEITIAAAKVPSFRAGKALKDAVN
In data set [2] the target is T1, HU alpha-beta heterodimer. The source holds these as a separate data set.
Data set [3] addresses T1, HU alpha-beta heterodimer. This is another data set of the same source.
Data set [4] has as its target T1, HU alpha-beta heterodimer. The source holds these as a separate data set.
In data set [5] the target is T1, HU alpha-beta heterodimer. The source holds these as a separate data set.
In data set [6] the target is T1, HU alpha-beta heterodimer. The source holds these as a separate data set.
Data set [7] has as its target T1, HU alpha-beta heterodimer. This is another data set of the same source.
Data set [8] has as its target T1, HU alpha-beta heterodimer. The source holds these as a separate data set.
Data set [9] concerns the target T1, HU alpha-beta heterodimer. The source holds these as a separate data set.
The target of data set [10] is T1, HU alpha-beta heterodimer. This is another data set of the same source.

In the case of AGTCTAGAGTGCAGTTGAGTCCTTGCTACGACGGAT (ssDNA) [ssDNA D-36], in data set [1], binding was characterised by a dissociation constant (Kd) of 80 nM.

In the case of AGTCTAGAGTGCAGTTGAGTCCTTGCTACGACGGATCCCTTAGG (ssDNA) [ssDNA D-44], the equilibrium dissociation constant (Kd) in data set [2] amounted to 40 nM.

In data set [3], AGTCTAGAGTGCAGTTGAGTCCTTGCTACGAC (ssDNA) [ssDNA D-32] returned a Kd of 114 nM. This counts as sub-micromolar.

For the molecule AGTCTAGAGTGCAGTTGAGTCCTT (ssDNA) [ssDNA D-24], the binding result in [4] is “binds”.

B1: mismatch 4 (dsDNA)
DNA 1: AGTCTAGACTGCAGTTGAGTCCTTGCTAGGACGGATCCCT
DNA 2: AGGGATCCGTCCTAGCAAATGTTCAACTGCAGTCTAGACT
With B1, in data set [5], the Kd was found to be 21 nM. In other words, the double-digit nanomolar range.

B2: nicked 40 (dsDNA)
DNA 1: B1 DNA 1 with C9G, G29C
DNA 2: AGGGATCCGTCGTAGCAAGG
DNA 3: ACTCAACTGCACTCTAGACT
Regarding B2, the Kd in data set [6] was 3 nM.

B3: mismatch 6 (dsDNA)
DNA 1: B1 DNA 1
DNA 2: B1 DNA 2 with A18G, T23A
For B3, the equilibrium dissociation constant (Kd) in data set [7] is 6 nM.

Molecule AGTCTAGAGTGCAGTTGAGTCCTTGCTACGACGGATCCCT (ssDNA) [ssDNA D-40] displayed a Kd in data set [8] of 54 nM.

B4: mismatch 10 (dsDNA)
DNA 1: B1 DNA 1
DNA 2: AGGGATCCGTCCTAGTTGATGTAGCACTGCAGTCTAGACT
In [7], B4 gave a Kd of 6 nM.

B5: mismatch 8 (dsDNA)
DNA 1: B1 DNA 1
DNA 2: B4 DNA 2 with T16C, C25A
Regarding B5, the Kd in [7] turned out to be 6 nM.

B6: dsDNA 40 (dsDNA)
DNA 1: B1 DNA 1 with C9G, G29C
DNA 2: AGGGATCCGTCGTAGCAAGGACTCAACTGCACTCTAGACT
On to B6, for which, in data set [9], the Kd came out at 7 nM. That is a single-digit nanomolar value.

The molecule AGTCTAGAGTGCAGTTGAGTCCTTGCTA (ssDNA) [ssDNA D-28] yielded a Kd in [10] of 755 nM. That is a sub-micromolar value.

The molecule AGTCTAGAGTGCAGTTGAGTCCTTGCTACGACGGATCCCTTAGGTCAG (ssDNA) [ssDNA D-48] returned a Kd in [1] of 41 nM. This counts as double-digit nanomolar.
